Substrate in series [1]: Nc1ccn([C@@H]2O[C@H](COP(=O)(O)O)[C@@H](O)[C@H]2O)c(=O)n1
The series can be described thus: phosphate release (phosphatase) assay, Michaelis-Menten fit. Conditions: 5 mM MgCl2; substrate range 0.001-9.5 mM. It counts as biochemical, Saccharomyces cerevisiae. An excerpt: phosphate release (phosphatase) assay, Michaelis-Menten fit on Sdt1 | Kinetic characterization of Phm8 and Sdt1 toward their most preferred substrate CMP

Substrate in series [2]: Nc1ccn([C@@H]2O[C@H](COP(=O)(O)O)[C@@H](O)[C@H]2O)c(=O)n1
Described as above. The conditions noted are these: 5 mM MgCl2; substrate range 0.001-9.5 mM. It counts as biochemical, Saccharomyces cerevisiae. An excerpt: phosphate release (phosphatase) assay, Michaelis-Menten fit on Phm8 | Kinetic characterization of Phm8 and Sdt1 toward their most preferred substrate CMP
This is another data set of the same source.

B1: Sdt1 (Saccharomyces cerevisiae S288C) (protein)
chain: MTVEYTASDLATYQNEVNEQIAKNKAHLESLTHPGSKVTFPIDQDISATPQNPNLKVFFFDIDNCLYKSSTRIHDLMQQSILRFFQTHLKLSPEDAHVLNNSYYKEYGLAIRGLVMFHKVNALEYNRLVDDSLPLQDILKPDIPLRNMLLRLRQSGKIDKLWLFTNAYKNHAIRCLRLLGIADLFDGLTYCDYSRTDTLVCKPHVKAFEKAMKESGLARYENAYFIDDSGKNIETGIKLGMKTCIHLVENEVNEILGQTPEGAIVISDILELPHVVSDLF
Broadly, the Km is the substrate concentration at which the rate is half of its maximum. In general, kcat refers to the number of substrate molecules converted per active site and unit of time at saturation. For the protein B1, in series [1], the Km turned out to be 1700 ± 200 µM and the kcat came out at 0.54 ± 0.02 s⁻¹.

B2: Phm8 (Saccharomyces cerevisiae S288C) (protein)
chain: MTIAKDYRTIYRNQIKKQIRLNQEHLQSLTHLGSQINFEVDPPKLPDPDPARKVFFFDIDNTLYRKSTKVQLLMQQSLSNFFKYELGFDDDEAERLIESYYQEYGLSVKGLIKNKQIDDVLQYNTFIDDSLPLQDYLKPDWKLRELLINLKKKKLGKFDKLWLFTNSYKNHAIRCVKILGIADLFDGITYCHYDRPIEEEFICKPDPKFFETAKLQSGLSSFANAWFIDDNESNVRSALSMGMGHVIHLIEDYQYESENIVTKDHKNKQQFSILKDILEIPLIMDVEVYRPSSIAIKEMEELEEEGEAVNWSNQQINVQSS
B2: in series [2], the Km stood at 63 ± 2 µM and the kcat amounted to 19.8 ± 0.1 s⁻¹.
